According to paper doi:10.1101/2021.05.10.443412:

Experiments:
[1] = target: T1, factor inhibiting HIF-1 (FIH-1), full-length (human), Q9NWT6; test: SEC-MALS; settings: remark: other sources report otherwise
[2] = target: T1, factor inhibiting HIF-1 (FIH-1), …; test: SEC; settings: remark: other sources report otherwise

B1: factor inhibiting HIF-1 (FIH-1), full-length, Q9NWT6 1-349 (enzyme)
chain: MAATAAEAVASGSGEPREEAGALGPAWDESQLRSYSFPTRPIPRLSQSDPRAEELIENEEPVVLTDTNLVYPALKWDLEYLQENIGNGDFSVYSASTHKFLYYDEKKMANFQNFKPRSNREEMKFHEFVEKLQDIQQRGGEERLYLQQTLNDTVGRKIVMDFLGFNWNWINKQQGKRGWGQLTSNLLLIGMEGNVTPAHYDEQQNFFAQIKGYKRCILFPPDQFECLYPYPVHHPCDRQSQVDFDNPDYERFPNFQNVVGYETVVGPGDVLYIPMYWWHHIESLLNGGITITVNFWYKGAPTPKRIEYPLKAHQKVAIMRNIEKMLGEALGNPQEVGPLLNTMIKGRYN
Question: Which results are given for B1?
Answer: stoichiometry N [1]: 2; stoichiometry N [2]: 2
